Data published in US20090311265A1 (CRUCELL HOLLAND B V, published 2009).

Tests used:
[1] = molecular target: T1, soluble recombinant HA (sHA) of H5N1TV (influenza A virus A/Vietnam/1194/2004 …, UniProt Q6J8F6 17-528); experiment: immunoblot (data not shown)
[2] = molecular target: T2, recombinant HA, subtype H5 (A/Vietnam/1203/2004 (H5N1)) (influenza A virus A/Vietnam/1203/2004 …, UniProt Q80A26 6-554); experiment: competition ELISA on coated HA, IgG 10 µg/ml, competitor: phage antibodies
[3] = molecular target: recombinant HA, subtype H3 (A/Wyoming/3/2003(H3N2)) (influenza A virus A/Wyoming/3/2003 …); experiment: ELISA, coated HA, IgG 5 µg/ml
[4] = molecular target: T2, recombinant HA, subtype H5 …; experiment: ELISA, coated HA, IgG 5 µg/ml
[5] = molecular target: recombinant HA, subtype H1 (A/New Caledonia/20/99 (H1N1)) (influenza A virus A/New Caledonia/20/99 …, UniProt Q289M7 18-565); experiment: ELISA, coated HA, IgG 5 µg/ml
[6] = molecular target: full-length HA from isolate A/Vietnam/1194/2004 (H5N1TV) on PER.C6 cells (influenza A virus A/Vietnam/1194/2004 …, UniProt Q80A26 6-554); experiment: flow cytometry, transfected PER.C6 cells
[7] = molecular target: T1, soluble recombinant HA (sHA) of H5N1TV; experiment: immunoblot, reducing SDS-PAGE

| Binder | binding result [1] | residual binding of phage antibody in the presence of the IgG [2] | OD 492 nm [3] | OD 492 nm [4] | OD 492 nm [5] | flow cytometry signal at 0.1 µg/ml [6] | flow cytometry signal at 1 µg/ml [6] | flow cytometry signal at 10 µg/ml [6] | binding result [7] |
| --- | --- | --- | --- | --- | --- | --- | --- | --- | --- |
| CR6296 (antibody, V domains shown) VH: EVQLVETGAEVKKPGASVKVSCKASGYTFTSYYMHWVRQAPGQGLEWMGWINPNSGGTNYAQKFQGRVTMTRDTSISTAYMELSRLRSDDTAVYYCAREGKWGPQAAFDIWGQGTMVTVSS VL: EIVMTQSPGTLSLSPGERATLSCRASQSVSSSYLAWYQQKPGQAPRLLIYDASSRATDIPDRFSGSGSGTDFTLTISRLEPEDFAVYYCQQYGSSLWTFGQGTKVEIKR | binds | – | – | – | – | – | – | – | – |
| CR6339 (antibody, V domains shown) VH: EVQLVESGAEVKKPGSSVKVSCKASGGIFNSYAISWVRQAPGQGLEWMGGIIAIFHTPKYAQKFQGRVTITADESTNTAYMELRSLKSEDTALYYCARGSTYDFSSGLDYWGQGTLVTVSS VL: QAGLTQPPSVSVAPGQTARITCGGNNIGSKSVHWYQQKPGQAPVLVVYDDSDRPSGIPERFSGSNSGNTATLTISRVEAGDEADYYCQVWDSSSDHVVFGGGTKLTVLG | – | > 25% | 0.07 OD 492 nm | 0.81 OD 492 nm | – | – | – | – | – |
| CR6272 (antibody, V domains shown) VH: QMQLVQSGAEVKKPGSSVKVSCKASGGTFSSYAITWVRQAPGQGLEWMGGIIGMFGSTNYAQNFQGRVTITADESTSTAYMELSSLRSEDTAVYYCARSTGYYPAYLHHWGQGTLVTVSS VL: QSALTQPRSVSGSPGQSVTISCTGTSSDVGGYNYVSWYQQHPGKAPKLMIYDVSKRPSGVPDRFSGSKSGNTASLTISGLQAEDEADYYCSSYTSSSTHVFGTGTKVTVLG | – | > 25% | 0.07 OD 492 nm | 0.58 OD 492 nm | 0.81 OD 492 nm | – | – | – | – |
| CR6323 (antibody, V domains shown) VH: EVQLVESGAEVKKPGSSVKVSCKASGGTFSSYGISWVRQAPGQGLEWMGDIIGMFGSTNYAQNFQGRLTITADESTSTAYMELSSLRSEDTAVYYCARSSGYYPAYLPHWGQGTLVTVSS VL: not shown | – | – | 0.07 OD 492 nm | 1.89 OD 492 nm | 2.32 OD 492 nm | 33.4 | 117 | 445 | binds |
| CR6307 (antibody, V domains shown) VH: QVQLVQSGGGLVKPGGSLRLSCAASGFTFSSYSMNWVRQAPGKGLEWVSSISSSSSYIYYVDSVKGRFTISRDNAKNSLYLQMNSLRAEDTAVYYCARGGGSYGAYEGFDYWGQGTLVTVSS VL: EIVLTQSPGTLSLSPGERATLSCRASQRVSSYLAWYQQKPGQAPRLLIYGASTRAAGIPDRFSGSGSGTDFTLTISRLEPEDSAVYYCQQYGRTPLTFGGGTKVEIKR | – | – | 0.11 OD 492 nm | 0.99 OD 492 nm | – | 82.4 | 267 | 485 | binds |
| CR6343 (antibody, V domains shown) VH: QVQLVQSGAEVKKPGSSVKVSCKASGVTFSYYAMSWVRQAPGQGLEWMGGISPMFGTTTYAQKFQGRVTITADDSTSTAYMEVRSLRSEDTAVYYCARSSNYYDSVYDYWGQGTLVTVSS VL: QSVVTQPPSESVAPGQTARITCGGHNIGSNSVHWYQQKPGQAPVLVVYDNSDRPSGIPERFSGSNSGNTATLTISRVEAGDEADYYCQVWGSSSDHYVFGTGTKVTVLG | – | > 25% | 0.07 OD 492 nm | 0.76 OD 492 nm | 1.28 OD 492 nm | – | – | – | – |
| CR6301 (antibody, V domains shown) VH: EVQLVESGGGLVQPGGSLRLSCAASGFTFSIYAMSWVRQAPGKGLEWVSAISSSGDSTYYADSVKGRFTISRDNARNTLYLQMNSLRAEDTAVYYCARAYGYTFDPWGQGTLVTVSS VL: not shown | binds | – | – | – | – | – | – | – | – |
